# Measured values taken from patent US20200405610A1, “COSMETIC COMPOSITION” (Shaanxi Huikang Bio-Tech Co., Ltd., priority 2016, published 2020).
# Assay: Isoelectric point of the pentapeptide
# Format: physicochemical
substance,measurement,value
Tyr-Gly-Phe-Gly-Gly (YGFGG; OGP(10-14); listed as Homo sapiens),isoelectric point,5.52
